The text below walks through data of paper PMC11098746 (2024).

Common to all, as to test: AVEXIS screen signal:noise (double-corrected)
One experiment deals with T1, ADP339.
T1 chain: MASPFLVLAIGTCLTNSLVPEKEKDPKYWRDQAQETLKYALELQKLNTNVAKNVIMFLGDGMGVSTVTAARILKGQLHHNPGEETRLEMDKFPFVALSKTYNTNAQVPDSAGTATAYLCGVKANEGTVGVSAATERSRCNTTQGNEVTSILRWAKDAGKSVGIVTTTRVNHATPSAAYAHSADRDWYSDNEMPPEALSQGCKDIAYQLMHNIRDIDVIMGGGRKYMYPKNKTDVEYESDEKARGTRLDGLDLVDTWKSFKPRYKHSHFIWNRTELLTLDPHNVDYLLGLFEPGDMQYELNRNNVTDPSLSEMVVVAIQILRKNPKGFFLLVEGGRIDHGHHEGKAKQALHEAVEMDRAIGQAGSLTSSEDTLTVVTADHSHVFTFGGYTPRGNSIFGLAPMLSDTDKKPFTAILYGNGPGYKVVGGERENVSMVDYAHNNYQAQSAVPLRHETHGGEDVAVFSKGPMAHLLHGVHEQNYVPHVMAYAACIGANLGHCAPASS

Another experiment has as its target T2, ADP315.
T2 chain: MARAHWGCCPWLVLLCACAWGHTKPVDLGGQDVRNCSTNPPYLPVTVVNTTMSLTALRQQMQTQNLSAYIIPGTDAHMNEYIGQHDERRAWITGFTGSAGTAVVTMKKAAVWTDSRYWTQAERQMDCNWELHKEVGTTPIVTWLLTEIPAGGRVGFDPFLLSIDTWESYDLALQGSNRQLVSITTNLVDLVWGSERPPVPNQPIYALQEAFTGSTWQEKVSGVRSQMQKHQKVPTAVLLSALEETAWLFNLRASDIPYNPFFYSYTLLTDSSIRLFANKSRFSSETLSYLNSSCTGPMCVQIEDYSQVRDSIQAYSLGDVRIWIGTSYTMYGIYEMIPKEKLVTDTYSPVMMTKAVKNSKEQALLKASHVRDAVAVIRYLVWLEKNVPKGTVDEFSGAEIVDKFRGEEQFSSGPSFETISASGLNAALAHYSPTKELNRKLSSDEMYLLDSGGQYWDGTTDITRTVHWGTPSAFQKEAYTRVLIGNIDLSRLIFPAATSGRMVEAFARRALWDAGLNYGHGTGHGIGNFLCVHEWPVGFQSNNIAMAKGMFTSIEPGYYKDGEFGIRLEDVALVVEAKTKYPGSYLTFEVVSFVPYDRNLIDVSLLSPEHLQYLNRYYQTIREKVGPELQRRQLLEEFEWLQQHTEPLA

The next experiment addresses T3, ADP293.
T3 chain: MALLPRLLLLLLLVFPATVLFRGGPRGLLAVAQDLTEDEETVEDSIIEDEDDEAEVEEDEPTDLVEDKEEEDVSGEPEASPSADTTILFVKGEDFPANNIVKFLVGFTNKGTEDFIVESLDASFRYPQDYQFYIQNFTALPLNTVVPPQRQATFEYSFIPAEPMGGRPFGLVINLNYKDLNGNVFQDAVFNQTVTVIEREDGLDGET

In another experiment the target is ADP369.
The target of a further experiment is T4, ADP269.
T4 chain: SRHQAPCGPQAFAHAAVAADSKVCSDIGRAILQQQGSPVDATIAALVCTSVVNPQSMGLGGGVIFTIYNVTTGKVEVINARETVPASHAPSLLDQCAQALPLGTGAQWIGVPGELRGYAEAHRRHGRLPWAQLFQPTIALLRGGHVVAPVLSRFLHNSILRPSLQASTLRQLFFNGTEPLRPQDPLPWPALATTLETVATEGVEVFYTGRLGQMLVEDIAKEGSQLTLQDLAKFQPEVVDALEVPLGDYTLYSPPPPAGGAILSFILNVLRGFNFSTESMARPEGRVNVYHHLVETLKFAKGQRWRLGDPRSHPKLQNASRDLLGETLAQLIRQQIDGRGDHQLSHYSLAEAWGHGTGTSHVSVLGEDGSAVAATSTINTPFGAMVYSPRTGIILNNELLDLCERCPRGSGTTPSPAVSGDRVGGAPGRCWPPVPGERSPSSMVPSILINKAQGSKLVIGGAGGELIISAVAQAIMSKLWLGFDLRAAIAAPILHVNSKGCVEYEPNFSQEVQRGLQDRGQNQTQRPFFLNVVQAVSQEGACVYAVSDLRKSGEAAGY

B1: ADP181 (protein)
chain: SSNDKNKINKNNMPLQRGASNLKDINIHNVEKKSNMESVNNNINNAACSKNLNANKVPNVAHTGVNKKGETKNEEVEKEENENEEIEKEEIENEENQQNEEDENEENQQNEEDENEENQQMNVNVDVSAEKKNKELPEEKKELQKNSEKNINKEVIKDSNKDNTFNFHKNINTAFNKNKNIYNNNNNNNNNNKAFIEKKEEAIDMKKTHCSNNNKMCKYNNMNNHMSTNKNNNQIFEESKQNVNKPIYNLKSLGNNAFKNDEKYNENDYKNNHDDDKKKYTDDSNEENIYEERNQKILLIHLLKNIKELLNRQRQNFNNFLSFLSENYQSYEKFYKSQKYQNGKNYIDKLDQQGELKNVAVVTHSFLDMSKAANGKKDKNGVFVKLMNDQNDDGDDTKDGDDTKDEDDHKNEDDHKNEDDHKNEDDHKNEDDHKNGDDNKNGDDHKNGDDNKNGDDDNGKKSHDISDIKNIIDTILQSDDITDEQKKYLEIIKKILDLEEDVLNKEKEQLQLNKNIIEVLMGKSDELRNIAVNLKNGNGDNEASQRVDLAQNIVSNLLNFAVQLKNTGNIVYNNIQGQGELLQSIEKNIDKAENDLKKSTSVNTAFTPKNVPNTEQNDQETQTDDDINDADIDENNNANDKNNCHMYKKNNCHMYKKNNCKKYFLNSHYNNYLCKKQKKYNKNDMGNKQKDNKKFKLNEAMKNHFYNIFVKETVMLKKLYKVLFELF
modifications: bait human Fc-tagged dimer; N-glycosylation sequons mutated in Plasmodium baits
B1 showed a binding score in the experiment with ADP339 of 6.19.

B2: ADP175 (protein)
chain: KVYQGQFYLKKNEKIHYLTKFSCNIGTCQFSIKMKLRDNIAAKLLNNYYKLNNKALKEMENDKDDGNNHNNNKYDDDNNNNNNRANKLLHMDYDNAYYVLSNQDLEYIPQRITLMQDIEQRYVNKNDKCYAFGNLKNSHMFNIPFYFKYSDLVNSKTYNLKNFINNKYSMSFNAIHSELKNNKLLQSEILNYGPILNEKNSNYAYKEIYAKTTHRVHVWFLMFDDCYDNFIRNLKLNIKTKLAYWEYLLHASKKFDISSLNDMDIKQDTSYNDFQNEETEKDIYSKENINNNNNNNMNNNMNEKKNKAIFYKSFNFDKITLLENPKRFLFLEEQFTKSEINDISFFLKYYQFKKMKNFNNMYNNLYKNGYYEQVIDYIYQNEGFHIEYEVNIFQTNKAHFSYE
modifications: bait human Fc-tagged dimer; N-glycosylation sequons mutated in Plasmodium baits
B2: the binding score in the experiment with ADP315 amounted to 5.79.

B3: ADP188 (protein)
chain: QDEKSVKNICVCDFTDKLNFLPLEKTKILCELKPQYGEDIKIIANKEYEINCMNNAKVFCPLKDTFINNANIKLYSPKLHFEIKDITHKGKNAALYYLKIDEEASDIFFSCSIKPKQVSGLLEGEVRVNLKKHINEEYSIFNEEEDVHVCDFSKGNLDITPSAGFYLKNSRNVACIYRVIPNKLFLIKLPKLDIVTEKLLPSIVNCLSEFSFINFALKHVQEGDNYISFNVIFGEFKKHFNLACSLDLSDFQQEPCNLGKTANIAFIFSK
modifications: bait human Fc-tagged dimer; N-glycosylation sequons mutated in Plasmodium baits
B3 returned a binding score with ADP293 of 5.5.

B4: ADP186 (protein)
chain: YNLNNDLSKNNNFALNTYVRKDDVEDDSKNEIVDNIQKMVDDFSDDIGFVKTSMREVLLDTEASLEEVSDHVVQNIAKYSLTIEEKLNLFDGLLEEFIENNKGLISNLAKRQQKLKGDKIKKVCDLILKKLKKLENVNKLIKYKIILKYGNKDNKKEMIQTLKNEEGLSDDFKNNLANYETEQNNDDIKEIELVNFISTNYDKFVVNLEDLNKELLKDLNMALS
modifications: bait human Fc-tagged dimer; N-glycosylation sequons mutated in Plasmodium baits
As for B4, in the experiment with ADP369, the binding score was determined as 5.22.

B5: ADP246 (protein)
chain: GLCKPCTLENHYCEGGLESDITFNNKLIKGKFHTLPKKCPRGLGIPNIIKERNSINNCLCIHGKVQRTTENKNVECFPCPPNTFKENEYDNSCSGACPPFSTTFVGSSYENQCFCKNNYYLVSTDDENDANGNSINNNKNIYNNNNIYNNNNNNNNNNNNNFNNKADVKKKSCKICPIGAICNRGFNIYIYLKLLNDRSYNNINVIDHETPFPKYGYYAVYREKTNPAKSWDTLDDSAILNYVYPYHKLLLFIQKNIQKGNYFFLEKGNKFFLNDDFVEKMNEKSKYEEENANKFVTKSEIIHNVNTNNLKGKHNTLNNNNNNNNINKASSFLNQNNYNNDIIQLSSYENNPFKNLASTSEVSSNNNVISFIQNNDKTNNAANDNNIENLVDIFNKYVQEAKELQIQNRKFERIPDIHPCTIPNRCLGTLINLCSDGSTGYQCNNCAKNYDMSYFKSKCKKCQNLFYE
modifications: bait human Fc-tagged dimer; N-glycosylation sequons mutated in Plasmodium baits
With B5, the binding score with ADP339 came to 15.5.

B6: ADP191 (protein)
chain: IYYCNDNILENANNDDSTKDINNINKNSANKAKSEKTSNYNNDQYNIDDAYNEDEENDEEEGDDDENDHFEVPINCAGGNCFDSMDDINKIIDNKKKKMKYRRRRGKAIQIIKPNVNHAELIIIEENLEIFKRIDKPIAIVSVLGDMHTGKSFLLNLLNEHVIPDINKANKYIENGFKVGNDITASTYGIWIWSEPIRINVKKLKKIYEYINENFANFIKSYEYEKDEYNEEIIDLLNLYKTDDWISNVEELNLADTDEVNLILMDTQGLNSPNVNKRYDEILYALTNLISTDIIFLTMKMINNKDLEFIENIAKDANLFMLRAYTRSSGSTFSIKKNNFHKILDTLNNNLENNALILESIASKNLMWVVHDFSQRLDVRKGKLWLDILLNSDRRDLDIKYWKKIISNKAKDKHDAYTTKKQKIAYLTYNENSASGLLPNNNNNNNNANDASSNYKLNILYKNIDCVLLRNMYHNKEFDFTKANINDLNEEYKNDVLLLRYKIYLRALLFPKKMYSDVQINNIINKIRKEQKLREEQEKNKDNKKNDANNQANDLNSNKDETSGSQVTNRFMSGHDVYDFITFLVKSANQNLFTNVNQFFKHFKINRAEISRNDLIFLYKKYLLQFMENEDVEFISNLNDENDDLFLQKEGNNAAVNHDENSDADSLFNDHDENMQLKEHNIKDGEDNTHQKKDSYKLPPLLNEIKKYEELIREQILNIWYKYTESDFHDEEEKELIKDIENNLYERLDQIKIEMLELGEMNIRKFCKIACEDALQIVVEDIKMKSDQYPIKQKDLTTFFESVSYNLIKYLEKKLSKNSDKLDLIYYKDNICSPLINNAFQEFYFLKKKNIALNENRLKSYFSNAVEKGKEVFEVLAENTENIAEYFKNKNMFYTVLDKWTSEAINTYTLTLSDFAKEEKEINDEYLNVLNNDIKLLKQKAMEKWHNHCRDKTSALYNMHKSNLKKNFLENFNFPLDELVLQDIFLNLKGQEELKYMDIYCANEDSWNSEYKNFLKLTDEIFQFIKDENLKAIQITCQQPLDELKNGIKGEIHKYYLWSSLKSTLYNRALIVLSSNIENIYIKNQRENKIQSNLDEKYNNKNKNYKRISKDLMSKVINRWLNNDIYNVYYP
modifications: bait human Fc-tagged dimer; N-glycosylation sequons mutated in Plasmodium baits
Take B6: in the experiment with ADP269, the binding score stood at 9.74.
